Assay results published in the supplement of paper PMC9112550, “Optimization of the antimicrobial peptide Bac7 by deep mutational scanning” (BMC Biology, 2022).

System: Escherichia coli TOP10
Experiment: shrunken log2 fold change of peptide-encoding DNA abundance (4.5 h post-induction vs induction); higher = less antimicrobial activity (less host growth inhibition)
Settings: time post-induction: 4.5 h; library: site-saturation at positions 5, 18, 19, 20
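Also: peptides expressed intracellularly from a pBAD plasmid library in pooled LB shake-flask culture, induced with 0.3% L-arabinose, DNA abundance read by NGS, three biological replicates, DESeq2 with apeglm shrinkage.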

Sequence	shrunken log2 fold change
RRIRNRPPRLPRPRPRPCDIPRP	-0.0262
RRIRCRPPRLPRPRPRPNRAPRP	0.00805
RRIRSRPPRLPRPRPRPDNFPRP	-0.299
RRIRCRPPRLPRPRPRPTLWPRP	0.313
RRIRGRPPRLPRPRPRPCAWPRP	0.167
RRIRIRPPRLPRPRPRPQWPPRP	0.238
RRIRARPPRLPRPRPRPENIPRP	-0.251
RRIRGRPPRLPRPRPRPCETPRP	0.496
RRIRYRPPRLPRPRPRPVCNPRP	-0.649
RRIRNRPPRLPRPRPRPWVGPRP	-0.065
RRIRTRPPRLPRPRPRPTTSPRP	0.0942
RRIRMRPPRLPRPRPRPRSRPRP	0.997
RRIRCRPPRLPRPRPRPMEKPRP	0.0833
RRIRIRPPRLPRPRPRPERSPRP	-0.164
RRIRGRPPRLPRPRPRPSVPPRP	0.215
RRIRFRPPRLPRPRPRPEMGPRP	0.0117
RRIRWRPPRLPRPRPRPDFFPRP	0.204
RRIRFRPPRLPRPRPRPIWFPRP	-0.129
RRIRMRPPRLPRPRPRPKWQPRP	-0.0255
RRIRHRPPRLPRPRPRPLGGPRP	-0.0164
RRIRGRPPRLPRPRPRPGFKPRP	0.354
RRIRNRPPRLPRPRPRPPINPRP	-0.186
RRIRKRPPRLPRPRPRPGHMPRP	0.177
RRIRERPPRLPRPRPRPFTTPRP	-0.381
RRIRCRPPRLPRPRPRPTVEPRP	0.199

Sequence	shrunken log2 fold change
RRIRYRPPRLPRPRPRPRWEPRP	-0.0931
RRIRNRPPRLPRPRPRPQPVPRP	0.0704
RRIRSRPPRLPRPRPRPAVAPRP	0.0474
RRIRHRPPRLPRPRPRPDWRPRP	0.147
RRIRMRPPRLPRPRPRPNGIPRP	0.0753
RRIRCRPPRLPRPRPRPWTSPRP	-0.419
RRIRSRPPRLPRPRPRPSMDPRP	-0.514
RRIRGRPPRLPRPRPRPDPNPRP	0.522
RRIRMRPPRLPRPRPRPFRFPRP	0.089
RRIRHRPPRLPRPRPRPIHEPRP	-0.153
RRIRRRPPRLPRPRPRPFDDPRP	-0.236
RRIRVRPPRLPRPRPRPQMRPRP	0.458
RRIRQRPPRLPRPRPRPKTTPRP	-0.636
RRIRQRPPRLPRPRPRPAQLPRP	0.0104
RRIRHRPPRLPRPRPRPLPKPRP	0.389
RRIRERPPRLPRPRPRPFEFPRP	-0.629
RRIRYRPPRLPRPRPRPPHTPRP	-0.656
RRIRGRPPRLPRPRPRPTLSPRP	0.313
RRIRKRPPRLPRPRPRPPLLPRP	0.524
RRIRNRPPRLPRPRPRPKADPRP	-0.0273
RRIRMRPPRLPRPRPRPCMDPRP	0.104
RRIRERPPRLPRPRPRPWREPRP	0.127
RRIRQRPPRLPRPRPRPNDAPRP	-0.0276
RRIRERPPRLPRPRPRPYFLPRP	-0.437
RRIRVRPPRLPRPRPRPENWPRP	0.131

Sequence	shrunken log2 fold change
RRIRFRPPRLPRPRPRPCRIPRP	-2.21
RRIRMRPPRLPRPRPRPMLPPRP	0.301
RRIRLRPPRLPRPRPRPRMTPRP	0.206
RRIRLRPPRLPRPRPRPADAPRP	0.599
RRIRARPPRLPRPRPRPYDAPRP	0.0611
RRIRDRPPRLPRPRPRPEKTPRP	0.0897
RRIRVRPPRLPRPRPRPVFFPRP	-0.0099
RRIRTRPPRLPRPRPRPWQYPRP	0.0126
RRIRQRPPRLPRPRPRPAQIPRP	0.028
RRIRTRPPRLPRPRPRPTKYPRP	-0.612
RRIRMRPPRLPRPRPRPCEAPRP	0.807
RRIRARPPRLPRPRPRPGSMPRP	0.135
RRIRFRPPRLPRPRPRPSNTPRP	-0.422
RRIRTRPPRLPRPRPRPHEFPRP	-0.175
RRIRERPPRLPRPRPRPVIQPRP	0.0166
RRIRHRPPRLPRPRPRPKFKPRP	0.0646
RRIRNRPPRLPRPRPRPKNMPRP	-0.189
RRIRERPPRLPRPRPRPMHNPRP	-0.437
RRIRERPPRLPRPRPRPSNGPRP	-0.0949
RRIRCRPPRLPRPRPRPIDQPRP	-0.0719
RRIRMRPPRLPRPRPRPPDYPRP	0.345
RRIRIRPPRLPRPRPRPQPHPRP	-0.00842
RRIRDRPPRLPRPRPRPPPWPRP	0.788
RRIRVRPPRLPRPRPRPRVHPRP	1.62
RRIRARPPRLPRPRPRPKNSPRP	-0.0129

Sequence	shrunken log2 fold change
RRIRLRPPRLPRPRPRPKEHPRP	0.227
RRIRYRPPRLPRPRPRPPCPPRP	-0.141
RRIRHRPPRLPRPRPRPIIAPRP	-0.272
RRIRCRPPRLPRPRPRPFGTPRP	-0.256
RRIRVRPPRLPRPRPRPAPWPRP	0.395
RRIRQRPPRLPRPRPRPCYTPRP	-0.149
RRIRYRPPRLPRPRPRPTNGPRP	-0.126
RRIRARPPRLPRPRPRPFTCPRP	0.0835
RRIRHRPPRLPRPRPRPIPPPRP	-0.0356
RRIRQRPPRLPRPRPRPHTDPRP	-0.228
RRIRHRPPRLPRPRPRPTDFPRP	-0.0704
RRIRSRPPRLPRPRPRPWPDPRP	-0.14
RRIRKRPPRLPRPRPRPLYQPRP	-0.187
RRIRNRPPRLPRPRPRPQPCPRP	0.0582
RRIRIRPPRLPRPRPRPKGPPRP	-0.14
RRIRCRPPRLPRPRPRPVDQPRP	-0.304
RRIRDRPPRLPRPRPRPCKTPRP	-0.0377
RRIRCRPPRLPRPRPRPKHAPRP	0.302
RRIRQRPPRLPRPRPRPANWPRP	0.431
RRIRIRPPRLPRPRPRPIWSPRP	0.025
RRIRKRPPRLPRPRPRPETQPRP	-0.119
RRIRTRPPRLPRPRPRPKVPPRP	-0.0154
RRIRARPPRLPRPRPRPQARPRP	0.233
RRIRNRPPRLPRPRPRPPLRPRP	0.138
RRIRYRPPRLPRPRPRPKYTPRP	-0.415

Sequence	shrunken log2 fold change
RRIRERPPRLPRPRPRPNGLPRP	-0.0319
RRIRTRPPRLPRPRPRPAFDPRP	0.161
RRIRRRPPRLPRPRPRPWDMPRP	0.0681
RRIRYRPPRLPRPRPRPPSVPRP	-0.209
RRIRKRPPRLPRPRPRPYGRPRP	-0.0362
RRIRHRPPRLPRPRPRPERDPRP	0.155
RRIRARPPRLPRPRPRPNNIPRP	-0.537
RRIRYRPPRLPRPRPRPCRYPRP	-0.212
RRIRLRPPRLPRPRPRPFSIPRP	-0.158
RRIRWRPPRLPRPRPRPCNWPRP	0.136
RRIRMRPPRLPRPRPRPGPFPRP	0.222
RRIRYRPPRLPRPRPRPFIEPRP	-1.2
RRIRYRPPRLPRPRPRPYKWPRP	-0.169
RRIRVRPPRLPRPRPRPYPNPRP	0.0262
RRIRKRPPRLPRPRPRPSINPRP	0.0278
RRIRVRPPRLPRPRPRPAGDPRP	0.778
RRIRDRPPRLPRPRPRPMNHPRP	-0.513
RRIRERPPRLPRPRPRPQPLPRP	-0.202
RRIRYRPPRLPRPRPRPARLPRP	-0.0429
RRIRCRPPRLPRPRPRPGDPPRP	0.132
RRIRSRPPRLPRPRPRPCGKPRP	0.027
RRIRHRPPRLPRPRPRPSWWPRP	0.348
RRIRGRPPRLPRPRPRPGSTPRP	0.75
RRIRPRPPRLPRPRPRPIPAPRP	0.342
RRIRVRPPRLPRPRPRPVIFPRP	-0.0885

Sequence	shrunken log2 fold change
RRIRERPPRLPRPRPRPCCVPRP	-0.743
RRIRLRPPRLPRPRPRPGRLPRP	0.0389
RRIRERPPRLPRPRPRPVQEPRP	0.0869
RRIRCRPPRLPRPRPRPMTLPRP	-0.135
RRIRMRPPRLPRPRPRPTCHPRP	0.317
RRIRGRPPRLPRPRPRPHQMPRP	0.532
RRIRARPPRLPRPRPRPWNYPRP	-0.625
RRIRVRPPRLPRPRPRPLRRPRP	0.644
RRIRIRPPRLPRPRPRPHTKPRP	-1.68
RRIRCRPPRLPRPRPRPSPLPRP	0.21
RRIRMRPPRLPRPRPRPKCVPRP	0.0964
RRIRFRPPRLPRPRPRPMWGPRP	-0.136
RRIRNRPPRLPRPRPRPFPQPRP	-0.186
RRIRLRPPRLPRPRPRPMLMPRP	-0.177
RRIRNRPPRLPRPRPRPMWGPRP	-0.018
RRIRKRPPRLPRPRPRPVEHPRP	0.455
RRIRARPPRLPRPRPRPTSGPRP	0.343
RRIRLRPPRLPRPRPRPCPPPRP	0.157
RRIRHRPPRLPRPRPRPGFNPRP	-0.0117
RRIRERPPRLPRPRPRPDFSPRP	0.0617
RRIRNRPPRLPRPRPRPSWPPRP	-0.0605
RRIRKRPPRLPRPRPRPGCYPRP	0.144
RRIRLRPPRLPRPRPRPSCHPRP	-0.475
RRIRQRPPRLPRPRPRPLYWPRP	-0.11
RRIRMRPPRLPRPRPRPQHSPRP	-0.183
